The record followed here is patent US20100099627A1 (YEDA RESEARCH AND DEVELOPMENT, published 2010).

Numbering of substitutions follows the chain as printed.

Data set [1] concerns the target T1, APA-GFP-ERK2, P63086.
T1 chain: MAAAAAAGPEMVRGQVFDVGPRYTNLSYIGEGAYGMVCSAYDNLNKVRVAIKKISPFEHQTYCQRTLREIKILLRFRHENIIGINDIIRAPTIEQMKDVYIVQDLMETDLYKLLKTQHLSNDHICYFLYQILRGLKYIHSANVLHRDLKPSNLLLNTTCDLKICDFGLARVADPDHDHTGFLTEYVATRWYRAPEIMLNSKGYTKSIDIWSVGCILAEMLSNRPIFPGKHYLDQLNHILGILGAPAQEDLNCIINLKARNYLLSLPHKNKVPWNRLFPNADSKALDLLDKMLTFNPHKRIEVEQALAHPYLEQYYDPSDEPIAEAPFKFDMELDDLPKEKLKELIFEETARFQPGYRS

Data set [2] deals with T2, WT-GFP-ERK2, P63086.
T2 chain: T1 chain with A244S, A246S

In data set [3] the target is T3, TEY-AAA-ERK2, P63086.
T3 chain: T1 chain with T183A, E184A, Y185A, A244S, A246S

In data set [4] the target is T4, importin-β (UniProt Q14974 1-876).
T4 construct: also called Impβ
Nature of the data set: co-immunoprecipitation with anti GFP Ab from HeLa cells, Western blot with anti importin-β Ab. As to the method: FIG. 9A. […] The extracts of the treated cells were then subjected to coimmunoprecipitation using A/G beads pre-conjugated with anti GFP Ab and mild washes. […] The equal amount of immunoprecipitated ERKs was determined with anti GFP (αGFP; IP) Ab. FIG. 19B. […] HeLa cells overexpressing 2GFP, 2GFP-SPS, 2GFP-APA and 2GFP-EPE constructs were subjected to coimmunoprecipitation as described in FIG. 19A (without EGF stimulation). FIG. 19C. […] This was followed by mild washing, and the beads were then subjected to Western blot analysis using anti His (αHis) and anti αGFP Abs.
(Immunoblotting shows a protein as a band on a membrane.)

B1: active GST-ERK2 (protein)
chain: T1 chain with A244S, A246S
B1: the “^32P incorporation, in vitro kinase assay (reduction against GFP-ERK2)” value in data set [1] is reported as “that of SPS-APA was reduced by ˜80%”; in data set [3] it was “The phosphorylation of TEY-AAA was reduced by ˜25%”. Also, the “^32P incorporation, in vitro kinase assay” value in data set [2] was “^32P incorporation to GFP-ERK2 was detected mainly when this protein was incubated with Act-ERK2”.

B2: WT-GFP-ERK2 (enzyme, UniProt P63086 1-358, looked up)
chain: T1 chain with A244S, A246S
modifications: SPS domain (Ser244, Ser246) and TEY motif phosphorylated upon stimulation of the cells (EGF, TPA, VOOH); the state depends on the cell treatment named in each row
notes: Overexpressed in HeLa or COS7 cells and immunoprecipitated with anti GFP Ab; also called WT-ERK2; WT-ERK; not shown: GFP encoded by pEGFP C1 (Clontech)
Turning to B2, the binding result in data set [4] is “no binding”.

B3: APA-GFP-ERK2 (enzyme, UniProt P63086 1-358, looked up)
chain: T1 chain
notes: also called GFP-ERK244/6A; ERK-AA; not shown: GFP encoded by pEGFP C1 (Clontech)
In the case of B3, the binding result in data set [4] is listed as “no binding”.

B4: EPE-GFP-ERK2 (enzyme, UniProt P63086 1-358, looked up)
chain: T1 chain with A244E, A246E
notes: also called GFP-ERK244/6E; ERK-EE; not shown: GFP encoded by pEGFP C1 (Clontech)
For B4, in data set [4], the binding result was “no binding”.
